What all share (assay type): biochemical
Data set [1] is described as follows: in vitro conversion of rebaudioside E to rebaudioside D by recombinant UGT76G1, with or without AtSUS1. The settings on record: with or without AtSUS1, 6 hours. On the procedure:
Codon optimized UGT76G1 cDNA was inserted in a bacterial expression vector, and the recombinant UGT76G1 protein was expressed and purified by affinity chromatography. The purified recombinant UGT76G1 polypeptide was analyzed by SDS-PAGE (molecular weight: 65.4 kD, FIG. 9). The rebaudioside E substrate was incubated with the recombinant UGT76G1, with or without AtSUS1, under conditions similar to those used in the Examples above. The products were analyzed by HPLC. […] Addition of recombinant AtSUS in the reaction enhanced the conversion efficiency in UGT-SUS coupling system.

Data set [2] in a line: in vitro conversion of rebaudioside A to rebaudioside D by recombinant HV1 polypeptide, with or without AtSUS1. On the procedure: (§1) The purified candidate UGT recombinant polypeptides were assayed for 1,2-19-O-glucose glycosylation activity by using stevioside or Reb A as the substrate (FIGS. 1A-1C). Typically, the recombinant polypeptide (10 μg) was tested in a 200 μl in vitro reaction system. The reaction system contains 50 mM potassium phosphate buffer, pH 7.2, 3 mM MgCl2, 1 mg/ml stevioside or rebaudioside A, 1 mM UDP-glucose. The reaction was performed at 30° C. and terminated by adding 200 μL 1-butanol. The samples were extracted three times with 200 μL 1-butanol. The pooled fraction was dried and dissolved in 70 μL 80% methanol for high-performance liquid chromatography (HPLC) analysis. Stevia extract (Blue California, Calif.), containing 95% stevioside, was used as stevioside substrate. Rebaudioside A (purity 99%) was also supplied by Blue California.
(§2) The UGT catalyzed glycosylation reaction was be coupled to a UDP-glucose generating reaction catalyzed by a sucrose synthase (such as AtSUS1 of SEQ ID NO:9). […] The purified recombinant AtSUS1 polypeptide was analyzed by SDS-PAGE (molecular weight: 106.3 kD, FIG. 7). […]
(§3) HPLC analysis was then performed using a Dionex UPLC ultimate 3000 system (Sunnyvale, Calif.), including a quaternary pump, a temperature controlled column compartment, an auto sampler and a UV absorbance detector. […]

The nature of data set [3]: in vitro conversion of Reb E to Reb Z by recombinant HV1 polypeptide and AtSUS1. The settings on record: Reb E 0.5 mg/ml, HV1 20 μg and AtSUS1 20 μg, 24 hours. Here is the method: An unexpected compound (“Reb Z”) having a HPLC retention time 6.68 minute (see, FIG. 4) that was distinctive from rebaudiosides D and E was produced. This compound represents a novel steviol glycoside, and is termed “rebaudioside Z” (“Reb Z”). To confirm the conversion of Reb E to Reb Z, Reb E substrate (0.5 mg/ml) was incubated with the recombinant HV1 polypeptide (20 μg) and AtSUS1 (20 μg) in a UGT-SUS coupling reaction system ([…]) under conditions similar to those used in the examples above.

Data set [4] in a line: enzymatic activity screening of candidate UGT polypeptides for 1,2-19-O-glucose glycosylation activity (in vitro reaction, HPLC). To be noted: stevioside or Reb A as substrate, 30° C. Here is the method: as §1, §2, §3
Data set [5] can be described thus: in vitro conversion of stevioside by recombinant HV1 polypeptide in UGT-SUS coupling reaction system. On the procedure:
as §1, with “Stevia extract (Blue California, Calif.), containing 95% stevioside, was used as stevioside substrate. Rebaudioside A (purity 99%) was also supplied by Blue California.” left out
as §2, §3
Accordingly, the catalytic activity of the recombinant HV1 polypeptide for steviol glycoside biosynthesis (e.g., production of rebaudioside D) was further determined in combination with UGT76G1. […] The products were analyzed by HPLC.

B1: UGT76G1: recombinant UDP-glycosyltransferase from stevia (SEQ ID NO:11) (protein, listed as Stevia rebaudiana)
chain: MENKTETTVRRRRRIILFPVPFQGHINPILQLANVLYSKGFSITIFHTNFNKPKTSNYPHFTFRFILDNDPQDERISNLPTHGPLAGMRIPIINEHGADELRRELELLMLASEEDEEVSCLITDALWYFAQSVADSLNLRRLVLMTSSLFNFHAHVSLPQFDELGYLDPDDKTRLEEQASGFPMLKVKDIKSAYSNWQILKEILGKMIKQTKASSGVIWNSFKELEESELETVIREIPAPSFLIPLPKHLTASSSSLLDHDRTVFQWLDQQPPSSVLYVSFGSTSEVDEKDFLEIARGLVDSKQSFLWVVRPGFVKGSTWVEPLPDGFLGERGRIVKWVPQQEVLAHGAIGAFWTHSGWNSTLESVCEGVPMIFSDFGLDQPLNARYMSDVLKVGVYLENGWERGEIANAIRRVMVDEEGEYIRQNARVLKQKADVSLMKGGSSYESLESLVSYISSL
Consider B1, for which the “1,3-13-O-glucose glycosylation activity (Reb D from Reb E)” value in data set [1] is recorded as “showed a 1,3-13-O-glucose glycosylation activity”.

B2: HV1: recombinant UDP-glycosyltransferase polypeptide (SEQ ID NO:6) derived from Hordeum vulgare subsp. vulgare (protein)
chain: MDGNSSSSPLHVVICPWLALGHLLPCLDIAERLASRGHRVSFVSTPRNIARLPPLRPAVAPLVDFVALPLPHVDGLPEGAESTNDVPYDKFELHRKAFDGLAAPFSEFLRAACAEGAGSRPDWLIVDTFHHWAAAAAVENKVPCVMLLLGAATVIAGFARGVSEHAAAAVGKERPAAEAPSFETERRKLMTTQNASGMTVAERYFLTLMRSDLVAIRSCAEWEPESVAALTTLAGKPVVPLGLLPPSPEGGRGVSKEDAAVRWLDAQPAKSVVYVALGSEVPLRAEQVHELALGLELSGARFLWALRKPTDAPDAAVLPPGFEERTRGRGLVVTGWVPQIGVLAHGAVAAFLTHCGWNSTIEGLLFGHPLIMLPISSDQGPNARLMEGRKVGMQVPRDESDGSFRREDVAATVRAVAVEEDGRRVFTANAKKMQEIVADGACHERCIDGFIQQLRSYKA
modifications: Hordeum vulgare
As to B2, the “conversion of rebaudioside A to rebaudioside D” value in data set [2] (HV1 alone without AtSUS1, after 24 hours) is on record as “only partial rebaudioside A was converted”; in data set [2] (UGT-SUS coupling reaction system (with AtSUS1), 6-24 hours), “completely converted”. Moreover, the “production of Reb Z from Reb E” value in data set [3] is “Reb Z was produced”. Further, the “1,2-19-O-glucose glycosylation activity” value in data set [4] is “showed a 1,2-19-O-glucose glycosylation activity”. The “production of rebaudioside D from stevioside” value in data set [5] (HV1 10 μg in combination with UGT76G1 10 μg and AtSUS1 10 μg) was “rebaudioside D was produced”. The “conversion of stevioside to rebaudioside E” value in data set [5] (coupled with AtSUS1, in vitro, 20 hours) was “converted stevioside to rebaudioside E”.

The values are drawn from patent US10253344B2, “Recombinant production of steviol glycosides” (Conagen Inc., priority 2013, dated 2019).
